According to the supplement of paper PMC10567573:

B1: INTS3 (parent)
chain: EEITEESLEESVGKPLYLIFRNLC

Variants of: B1
Assay: protein stability index of a GFP-peptide fusion (GPS, HEK-293T) (PSI 1-6); higher = more stable
Conditions: c terminus: a fixed tail appended
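Further: lentivirally expressed fusions sorted by FACS into six bins by GFP to DsRed ratio, PSI derived from sequencing read proportions per bin multiplied by bin number.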

Row | Variant | protein stability index
1 | EEITEESLEESVGKTLYLIFRNLC [P15T] | 2.06
2 | EEITEESLEESVGKVLYLIFRNLC [P15V] | 1.77
3 | EEITEESLEESVGKWLYLIFRNLC [P15W] | 2.06
4 | EEITEESLEESVGKYLYLIFRNLC [P15Y] | 1.74
5 | EEITEESLEESVGKPAYLIFRNLC [L16A] | 2.99
6 | EEITEESLEESVGKPCYLIFRNLC [L16C] | 2.68
7 | EEITEESLEESVGKPDYLIFRNLC [L16D] | 4.26
8 | EEITEESLEESVGKPEYLIFRNLC [L16E] | 3.26
9 | EEITEESLEESVGKPFYLIFRNLC [L16F] | 3.35
10 | EEITEESLEESVGKPGYLIFRNLC [L16G] | 3.38
11 | EEITEESLEESVGKPHYLIFRNLC [L16H] | 3.09
12 | EEITEESLEESVGKPIYLIFRNLC [L16I] | 2.56
13 | EEITEESLEESVGKPKYLIFRNLC [L16K] | 3.39
14 | EEITEESLEESVGKPMYLIFRNLC [L16M] | 2.92
15 | EEITEESLEESVGKPNYLIFRNLC [L16N] | 3.62
16 | EEITEESLEESVGKPPYLIFRNLC [L16P] | 3.52
17 | EEITEESLEESVGKPQYLIFRNLC [L16Q] | 3.69
18 | EEITEESLEESVGKPRYLIFRNLC [L16R] | 3.38
19 | EEITEESLEESVGKPSYLIFRNLC [L16S] | 3.29
20 | EEITEESLEESVGKPTYLIFRNLC [L16T] | 3.23
21 | EEITEESLEESVGKPVYLIFRNLC [L16V] | 2.93
22 | EEITEESLEESVGKPWYLIFRNLC [L16W] | 2.41
23 | EEITEESLEESVGKPYYLIFRNLC [L16Y] | 2.78
24 | EEITEESLEESVGKPLALIFRNLC [Y17A] | 3.32

Row | Variant | protein stability index
25 | EEITEESLEESVGKPLCLIFRNLC [Y17C] | 3.12
26 | EEITEESLEESVGKPLDLIFRNLC [Y17D] | 4.25
27 | EEITEESLEESVGKPLELIFRNLC [Y17E] | 3.33
28 | EEITEESLEESVGKPLFLIFRNLC [Y17F] | 2.73
29 | EEITEESLEESVGKPLGLIFRNLC [Y17G] | 3.59
30 | EEITEESLEESVGKPLHLIFRNLC [Y17H] | 3.69
31 | EEITEESLEESVGKPLILIFRNLC [Y17I] | 2.62
32 | EEITEESLEESVGKPLKLIFRNLC [Y17K] | 4.07
33 | EEITEESLEESVGKPLLLIFRNLC [Y17L] | 2.28
34 | EEITEESLEESVGKPLMLIFRNLC [Y17M] | 2.85
35 | EEITEESLEESVGKPLNLIFRNLC [Y17N] | 3.46
36 | EEITEESLEESVGKPLPLIFRNLC [Y17P] | 4.11
37 | EEITEESLEESVGKPLQLIFRNLC [Y17Q] | 2.92
38 | EEITEESLEESVGKPLRLIFRNLC [Y17R] | 2.61
39 | EEITEESLEESVGKPLSLIFRNLC [Y17S] | 2.85
40 | EEITEESLEESVGKPLTLIFRNLC [Y17T] | 3.22
41 | EEITEESLEESVGKPLVLIFRNLC [Y17V] | 2.68
42 | EEITEESLEESVGKPLWLIFRNLC [Y17W] | 2.84
43 | EEITEESLEESVGKPLYAIFRNLC [L18A] | 2.92
44 | EEITEESLEESVGKPLYCIFRNLC [L18C] | 2.7
45 | EEITEESLEESVGKPLYDIFRNLC [L18D] | 3.35
46 | EEITEESLEESVGKPLYEIFRNLC [L18E] | 3.12
47 | EEITEESLEESVGKPLYFIFRNLC [L18F] | 2.3
48 | EEITEESLEESVGKPLYGIFRNLC [L18G] | 3.71

Row | Variant | protein stability index
49 | EEITEESLEESVGKPLYHIFRNLC [L18H] | 3.4
50 | EEITEESLEESVGKPLYIIFRNLC [L18I] | 2.72
51 | EEITEESLEESVGKPLYKIFRNLC [L18K] | 3.1
52 | EEITEESLEESVGKPLYMIFRNLC [L18M] | 3.38
53 | EEITEESLEESVGKPLYNIFRNLC [L18N] | 3.38
54 | EEITEESLEESVGKPLYPIFRNLC [L18P] | 3.69
55 | EEITEESLEESVGKPLYQIFRNLC [L18Q] | 3.21
56 | EEITEESLEESVGKPLYRIFRNLC [L18R] | 2.82
57 | EEITEESLEESVGKPLYSIFRNLC [L18S] | 3.37
58 | EEITEESLEESVGKPLYTIFRNLC [L18T] | 3.37
59 | EEITEESLEESVGKPLYVIFRNLC [L18V] | 2.7
60 | EEITEESLEESVGKPLYWIFRNLC [L18W] | 2.16
61 | EEITEESLEESVGKPLYYIFRNLC [L18Y] | 2.93
62 | EEITEESLEESVGKPLYLAFRNLC [I19A] | 3.73
63 | EEITEESLEESVGKPLYLCFRNLC [I19C] | 3.62
64 | EEITEESLEESVGKPLYLDFRNLC [I19D] | 3.89
65 | EEITEESLEESVGKPLYLEFRNLC [I19E] | 3.9
66 | EEITEESLEESVGKPLYLFFRNLC [I19F] | 2.3
67 | EEITEESLEESVGKPLYLGFRNLC [I19G] | 3.67
68 | EEITEESLEESVGKPLYLHFRNLC [I19H] | 3.85
69 | EEITEESLEESVGKPLYLKFRNLC [I19K] | 3.66
70 | EEITEESLEESVGKPLYLLFRNLC [I19L] | 2.86
71 | EEITEESLEESVGKPLYLMFRNLC [I19M] | 3.06
72 | EEITEESLEESVGKPLYLNFRNLC [I19N] | 3.92

Row | Variant | protein stability index
73 | EEITEESLEESVGKPLYLPFRNLC [I19P] | 4.17
74 | EEITEESLEESVGKPLYLQFRNLC [I19Q] | 4
75 | EEITEESLEESVGKPLYLRFRNLC [I19R] | 3.7
76 | EEITEESLEESVGKPLYLSFRNLC [I19S] | 3.33
77 | EEITEESLEESVGKPLYLTFRNLC [I19T] | 3.41
78 | EEITEESLEESVGKPLYLVFRNLC [I19V] | 3.16
79 | EEITEESLEESVGKPLYLWFRNLC [I19W] | 2.91
80 | EEITEESLEESVGKPLYLYFRNLC [I19Y] | 2.75
81 | EEITEESLEESVGKPLYLIARNLC [F20A] | 2.82
82 | EEITEESLEESVGKPLYLICRNLC [F20C] | 3.32
83 | EEITEESLEESVGKPLYLIDRNLC [F20D] | 4.48
84 | EEITEESLEESVGKPLYLIERNLC [F20E] | 3.53
85 | EEITEESLEESVGKPLYLIGRNLC [F20G] | 4.07
86 | EEITEESLEESVGKPLYLIHRNLC [F20H] | 3.46
87 | EEITEESLEESVGKPLYLIIRNLC [F20I] | 2.88
88 | EEITEESLEESVGKPLYLIKRNLC [F20K] | 4.46
89 | EEITEESLEESVGKPLYLILRNLC [F20L] | 2.37
90 | EEITEESLEESVGKPLYLIMRNLC [F20M] | 3.1
91 | EEITEESLEESVGKPLYLINRNLC [F20N] | 4.33
92 | EEITEESLEESVGKPLYLIPRNLC [F20P] | 4.07
93 | EEITEESLEESVGKPLYLIQRNLC [F20Q] | 3.97
94 | EEITEESLEESVGKPLYLIRRNLC [F20R] | 4.23
